We go through 4 molecules from US20200262895A1 (Biogen, published 2020).

For assay [1], the target named is T1, recombinant human tau, isoform Tau-F of 441 aa (hTau40) (human, UniProt P10636 1-758).
T1 construct: Bought from rPeptide (Bogart, GA, USA); coated on ELISA plates, blotted, or spotted as overlapping peptides; also called full-length tau; rTau
Description: binding of CHO-produced antibody to recombinant tau; format not stated.

Assay [2] concerns the target T1, recombinant human tau, isoform Tau-F of …. Description: direct ELISA, hTau40 coated at 3 ug/ml. An excerpt: (§1) The EC₅₀ values were estimated by a non-linear regression using GraphPad Prism software.
In general terms: In an ELISA, binding on a coated surface is turned into a signal by an enzyme label.

Assay [3] shares this target. Description: direct ELISA, hTau40 coated at 1 ug/ml. Here is the method: as §1
ELISA plates were coated with recombinant human tau (hTau40, 1 ug/ml), PHFTau (1:100) and control preparation (1:100), and incubated with varying antibody concentrations.

The target of assay [4] is T2, PHFTau (paired helical filaments containing pathologically phosphorylated tau filaments, extracted from AD … (human, UniProt P10636-8 1-441, limits assumed, pathologically phosphorylated (sites of the preparation not listed), aggregated filaments)).
T2 construct: Brain extract, not a single defined isoform; also called human PHF tau; pathologically modified PHFTau
T2 sequence (P10636 other isoform, or with tags, fused parts or gaps limits assumed): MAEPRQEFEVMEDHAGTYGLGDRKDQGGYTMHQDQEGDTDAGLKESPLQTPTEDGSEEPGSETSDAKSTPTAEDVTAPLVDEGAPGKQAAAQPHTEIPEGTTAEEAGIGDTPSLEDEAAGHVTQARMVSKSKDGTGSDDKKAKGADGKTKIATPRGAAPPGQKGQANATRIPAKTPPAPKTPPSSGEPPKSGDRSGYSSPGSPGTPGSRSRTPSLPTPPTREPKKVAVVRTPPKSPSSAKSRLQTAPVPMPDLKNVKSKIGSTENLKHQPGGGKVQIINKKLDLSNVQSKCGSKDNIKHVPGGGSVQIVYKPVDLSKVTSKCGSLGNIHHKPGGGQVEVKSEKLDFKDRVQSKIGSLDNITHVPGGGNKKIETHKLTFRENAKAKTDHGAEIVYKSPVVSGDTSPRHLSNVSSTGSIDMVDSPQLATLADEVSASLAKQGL
Description: direct ELISA on coated PHFTau.

Assay [5] addresses T3, normal tau in wild type mouse brain (Wt) (mouse, UniProt P10637-2 1-430, limits assumed).
T3 construct: Control tissue in immunohistochemistry
Description: immunohistochemistry on brain tissue.

Assay [6] deals with T1, recombinant human tau, isoform Tau-F of …. Description: direct ELISA on coated recombinant tau (rTau).

T1 sequence (P10636 other isoform, or with tags, fused parts or gaps limits assumed): as above
T3 sequence (P10637 other isoform, or with tags, fused parts or gaps limits assumed): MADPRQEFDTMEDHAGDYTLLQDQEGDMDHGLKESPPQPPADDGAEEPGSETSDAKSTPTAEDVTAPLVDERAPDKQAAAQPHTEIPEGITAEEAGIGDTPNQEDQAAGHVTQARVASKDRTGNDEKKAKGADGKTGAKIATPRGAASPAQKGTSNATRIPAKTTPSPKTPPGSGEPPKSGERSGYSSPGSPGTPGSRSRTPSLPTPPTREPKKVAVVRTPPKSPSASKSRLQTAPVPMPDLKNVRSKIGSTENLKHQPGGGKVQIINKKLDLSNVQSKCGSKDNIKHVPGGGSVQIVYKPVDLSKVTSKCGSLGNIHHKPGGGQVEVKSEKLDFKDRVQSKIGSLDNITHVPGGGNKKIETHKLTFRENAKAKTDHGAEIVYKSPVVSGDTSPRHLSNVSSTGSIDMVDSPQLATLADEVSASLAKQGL

B1: chimeric NI-105.4E4(N30Q) (ch4E4(N30Q)), mouse IgG2a/lambda (antibody, V domains shown)
VH: EVQLVESGGGLVQPGGSLKLSCAASGFNFQISAIHWVRQASGKGLEWVGRIRSKSHNYATLYAASLKGRFTLSRDDSRNTAYLQMSSLQTEDMAVYYCTVLSANYDTFDYWGQGTLVTVSS
VL: SYELTQPPSVSVSPGQTARISCFGDTLPKQYTYWYQQKPGQAPVLVIYKDTERPSGIPERFSGSSSGTTVTLTISGVQAEDEADYYCLSADNSATWVFGGGTKVTVLG
notes: Only the heavy chain of ch4E4 was changed (Asn-30 to Gln)
Regarding B1, the “fold higher apparent binding affinity relative to the original, glycosylated antibody (ch4E4)” value in assay [1] is approximately 4 fold.

B2: recombinant human antibody NI-105.24B2 (antibody, V domains shown)
VH: EVQLVQSGAEVKKPGASVKVSCKASGYTFVNYIIHWVRQAPGQGLEWMGIINPNGGNTSYAEKFQARVTLTSDTSTSTVYMDLSSLTSEDTAVYYCAVLSPSNPWGQGTTVTVSS
VL: SYVLTQPPSVSVSPGQTAGITCSGDALPKQFVYWYQKKPGQAPVLLIYKDTERPSRIPERFSGSTSGTTVALTINGVQAEDEADYYCQSADRSGALWVFGGGTKLTVL
notes: Human antibody described in US 2012/0087861; used as cloned
With B2, in assay [2], the 50% effective concentration (EC50) (as a rule, the concentration needed to bring the measured effect to its halfway point) was 6.6 nM.

B3: recombinant human antibody NI-105.4A3 (antibody, V domains shown)
VH: EVQLVETGGGAVQPGGSLRLSCAASGFTFSDYAMHWVRQAPGKGLQWVAVISYEGTYKYYADSVKGRFTISRDNSKNTLNLQMSSLRVEDTAVYFCVKARAFASGQRSTSTVPDYWGQGTLVTVSS
VL: SYELTQPPSVSVSPGQTARITCSGDALPKKYAYWYQQKSGQAPVLVIYEDNKRPSGIPERFSGSSSGTVATLTISGAQVDDEADYYCYSTDISGDLRVFGGGTKLTVL
notes: as for B2
On to B3, for which, in assay [3], the EC50 was determined as 1.4 nM.

B4: recombinant human antibody NI-105.6C5 (germlined) (antibody, human IgG1, V domains shown)
VH: QVQLVESGGGVVQPGRSLRVSCAASGFTFSSYDMHWVRQAPGKGLEWVAVIWFDGSNEFYADSVKGRFTISRDNSKNTLFLQMNSLRAEDTAVYYCARDLGASVTTSNAENFHHWGQGTLVTVSS
VL: SYELTQPPSVSVSPGQTARITCSGDALPKRYVYWYQQKSGQAPVLVIYEDSKRPSGIPETFSGSSSGTMATLTISGAQVEDEADYYCYSTDSNGHHWVFGGGTKLTVL
For B4, the EC50 in assay [4] stood at 0.04 nM; in assay [6] it was 0.033 nM. Moreover, the binding result in assay [5] is given as “no binding”.
